Test results taken from US20200024357A1 (published 2020).

Biological target: T1, human CD39 (vascular CD39, NTPDase1, ENTPD1) expressed at the cell surface (human, UniProt P49961 1-510)
T1 construct: also called huCD39; CHO-huCD39
T1 sequence: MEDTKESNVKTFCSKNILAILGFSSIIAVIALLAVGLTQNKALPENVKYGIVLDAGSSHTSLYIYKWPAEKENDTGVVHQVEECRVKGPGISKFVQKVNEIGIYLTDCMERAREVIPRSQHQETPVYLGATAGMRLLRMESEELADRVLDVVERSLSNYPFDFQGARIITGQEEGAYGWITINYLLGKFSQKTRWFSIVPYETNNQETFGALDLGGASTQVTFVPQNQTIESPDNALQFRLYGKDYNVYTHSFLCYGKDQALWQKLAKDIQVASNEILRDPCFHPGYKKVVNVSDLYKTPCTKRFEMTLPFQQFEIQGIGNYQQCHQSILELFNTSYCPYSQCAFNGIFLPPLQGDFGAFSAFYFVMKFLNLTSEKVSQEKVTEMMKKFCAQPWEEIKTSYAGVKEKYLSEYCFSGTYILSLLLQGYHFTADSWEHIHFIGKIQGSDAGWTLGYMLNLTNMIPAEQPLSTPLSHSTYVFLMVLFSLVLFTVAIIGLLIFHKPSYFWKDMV
Assay: flow cytometry on CHO cells expressing human CD39
Experimental: Cells were incubated with various concentration of unlabeled anti-CD39 antibody from 30 μg/ml to 5×10-⁴ μg/ml, for 30 minutes at 4° C. After washes, cells were incubated with Goat anti-mouse H+L labeled secondary antibody for 30 min at 4° C.
Antibodies mAb1-21 were assessed for binding to CD39 by flow cytometry as described in Example 7, using CHO cells expressing human CD39 and CHO cells expressing cynomolgus (Macaca fascicularis) CD39.

binding result: binds
B1: mAb20 H4L1 (antibody, human IgG1, kappa, V domains shown)
VH: QVQLVQSGAEVKKPGASVKVSCKASGYTFTDYNMHWVRQAPGQRLEWIGYIVPLNGGSTFNQKFKGRATITVDTSARTAYMELSSLRSEDTAVYYCARGGTRFAYWGQGTLVTVSS
VL: DIVMTQSPDSLAVSLGERATINCRASESVDNFGVSFMYWFQQKPGQPPKLLIYGASNQGSGVPDRFSGSGSGTDFTLTISSLQAEDVAVYYCQQTKEVPYTFGGGTKVEIKR
notes: The full heavy chain carries L234A/L235E/G237A/A330S/P331S
